Source: PMC8192788, “Macropinocytosis requires Gal-3 in a subset of patient-derived glioblastoma stem cells” (Communications Biology, 2021)

Biological target: T1, purified human Gal-3 (Biolegend) (human, UniProt P17931 1-250)
T1 construct: purified human Galectin-3 bought from Biolegend; No catalogue number printed; source: bought: Biolegend
Assay: cell-free binding assay (coated plate, antibody detection by fluorescence); 96-well plates coated with purified human Gal-3 (0.5 µg in 100 µl, 4 °C overnight), blocked with 50 mg/mL BSA; recombinant human RAB10 0.25 to 0.5 µg/well, 4 h at 30 °C; bound RAB10 detected with rabbit anti-RAB10 and AF488 secondary antibody
Conditions: both partners purified

T1 sequence (P17931 whole entry): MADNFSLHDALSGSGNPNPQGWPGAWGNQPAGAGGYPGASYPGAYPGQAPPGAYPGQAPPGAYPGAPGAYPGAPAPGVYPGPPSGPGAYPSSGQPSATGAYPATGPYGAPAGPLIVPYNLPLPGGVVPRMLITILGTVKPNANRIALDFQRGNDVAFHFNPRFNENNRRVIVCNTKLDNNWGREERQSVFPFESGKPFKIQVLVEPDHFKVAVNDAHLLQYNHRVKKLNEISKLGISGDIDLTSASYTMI

binding result: binds
B1: recombinant human RAB10 (Prospec PRO-1361) (natural protein, UniProt P61026 1-200, looked up)
chain: MAKKTYDLLFKLLLIGDSGVGKTCVLFRFSDDAFNTTFISTIGIDFKIKTVELQGKKIKLQIWDTAGQERFHTITTSYYRGAMGIMLVYDITNGKSFENISKWLRNIDEHANEDVERMLLGNKCDMDDKRVVPKGKGEQIAREHGIRFFETSAKANINIEKAFLTLAEDILRKTPVKEPNSENVDISSGGGVTGWKSKCC
notes: recombinant human RAB10 bought from Prospec; The vendor's data sheet for PRO-1361 should give limits and any His tag; source: bought: Prospec
